From paper PMC4011162, “A gene horizontally transferred from bacteria protects arthropods from host plant cyanide poisoning” (eLife, 2014)

T1: Tu-CAS (Tetranychus urticae, UniProt T1KF23)
T1 construct: gene 107363798; tag removal not mentioned; PLP-dependent, predicted cytosolic
T1 sequence (T1KF23 1-320): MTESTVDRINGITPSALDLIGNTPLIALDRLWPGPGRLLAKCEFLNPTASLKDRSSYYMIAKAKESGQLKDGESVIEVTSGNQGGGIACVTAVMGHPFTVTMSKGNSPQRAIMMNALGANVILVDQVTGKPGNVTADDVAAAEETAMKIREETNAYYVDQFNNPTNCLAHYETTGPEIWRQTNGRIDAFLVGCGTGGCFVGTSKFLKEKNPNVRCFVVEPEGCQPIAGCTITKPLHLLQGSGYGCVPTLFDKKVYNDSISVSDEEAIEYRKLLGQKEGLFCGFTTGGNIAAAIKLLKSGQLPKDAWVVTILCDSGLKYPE

B1: Tu-CAS (Tetranychus urticae) (protein)
chain: MTESTVDRINGITPSALDLIGNTPLIALDRLWPGPGRLLAKCEFLNPTASLKDRSSYYMIAKAKESGQLKDGESVIEVTSGNQGGGIACVTAVMGHPFTVTMSKGNSPQRAIMMNALGANVILVDQVTGKPGNVTADDVAAAEETAMKIREETNAYYVDQFNNPTNCLAHYETTGPEIWRQTNGRIDAFLVGCGTGGCFVGTSKFLKEKNPNVRCFVVEPEGCQPIAGCTITKPLHLLQGSGYGCVPTLFDKKVYNDSISVSDEEAIEYRKLLGQKEGLFCGFTTGGNIAAAIKLLKSGQLPKDAWVVTILCDSGLKYPE
notes: tag removal not mentioned; PLP-dependent, predicted cytosolic

Legend:
Tu-CAS = target: T1, Tu-CAS; test: cofactor dependence of enzymatic activity; format: biochemical; conditions: 500 µM pyridoxal-5'-phosphate in assay; Schiff base lysine conserved by sequence
purified protein [1] = substrate: N[C@@H](CS)C(=O)O; test: purified protein; format: biochemical, Tetranychus urticae; conditions: co-substrate sodium cyanide (standard 0.01 M stock), 0.2 M Tris pH 8.5, 37 °C, preincubated with 500 µM pyridoxal-5'-phosphate
purified protein [2] = substrate: CC(=O)OC[C@H](N)C(=O)O; test: purified protein; conditions: co-substrate sodium sulfide (standard 2 mM); preincubated with 500 µM pyridoxal-5'-phosphate; pH not given

Row | Molecule | cofactor dependence of enzymatic activity (Tu-CAS) | Km (purified protein [1]) [µM] | kcat/Km (purified protein [1]) [M⁻¹ s⁻¹] | Km (purified protein [2]) [µM] | kcat/Km (purified protein [2]) [M⁻¹ s⁻¹]
1 | Cc1ncc(COP(=O)(O)O)c(C=O)c1O [pyridoxal-5′-phosphate] | Enzymatic activity was dependent on pyridoxal-5′-phosphate as a cofactor |  |  |  | 
2 | B1 |  | 312 | 6840 | 3170 | 203
